Bridge positions count the residues as written; N and C are the ends. Square brackets hold non-standard residues; d marks the D form. Ends that are not written are not given here. NMeW = CN[C@@H](Cc1c[nH]c2ccccc12)C(=O)O; NMeY = CN[C@@H](Cc1ccc(O)cc1)C(=O)O; NMeR = CN[C@@H](CCCNC(=N)N)C(=O)O; NMeF = CN[C@@H](Cc1ccccc1)C(=O)O; NMeT = CN[C@H](C(=O)O)[C@@H](C)O; NMeL = CN[C@@H](CC(C)C)C(=O)O; NMeS = CN[C@@H](CO)C(=O)O; NMeA = CN[C@@H](C)C(=O)O; Sar = CNCC(=O)O
Target: human Factor IXa (human, UniProt P00740 47-191; P00740 227-461)
Experiment: cell-based or functional assay

Binder | EC50 [µM], FXa generation assay [µM] | EC50 [µM], FXa generation assay with hFIXa [µM]
RRAPGKLTC[dL]ASYCWLFWTGIA (not fully specified (C-terminus, bridges); printed as RRAPGKLTClASYCWLFWTGIA; cysteine pairing not given here) [RRAPGKLTClASYCWLFWTGIA] | > 1 | –
RRAPGKLTCLASYCW[NMeL]FWTGIA (not fully specified (bridges); printed as RRAPGKLTCLASYCW-MeLeu-FWTGIA; cysteine pairing not given here) [RRAPGKLTCLASYCW-MeLeu-FWTGIA] | > 10 | –
RRAPGK[NMeL]TCLASYCWLFWTGIA (not fully specified (bridges); printed as RRAPGK-MeLeu-TCLASYCWLFWTGIA; cysteine pairing not given here) [RRAPGK-MeLeu-TCLASYCWLFWTGIA] | > 1 | –
RR[NMeA]PGKLTCLASYCWLFWTGIA (disulfide 9-14 (inferred); not fully specified (C-terminus); printed as RR-MeAla-PGKLTCLASYCWLFWTGIA) [RR-MeAla-PGKLTCLASYCWLFWTGIA] | < 0.5 | –
RRAPGKLTCLASYCWLFWTGI[NMeA] (not fully specified (C-terminus, bridges); printed as RRAPGKLTCLASYCWLFWTGI-MeAla; cysteine pairing not given here) [RRAPGKLTCLASYCWLFWTGI-MeAla] | > 1 | –
RRAPGKLTCLA[dS]YCWLFWTGIA (not fully specified (bridges); printed as RRAPGKLTCLAsYCWLFWTGIA; cysteine pairing not given here) [RRAPGKLTCLAsYCWLFWTGIA] | < 0.5 | –
RRAPGKLTC[NMeL]ASYCWLFWTGIA (not fully specified (bridges); printed as RRAPGKLTC-MeLeu-ASYCWLFWTGIA; cysteine pairing not given here) [RRAPGKLTC-MeLeu-ASYCWLFWTGIA] | > 1 | –
RRAPGKLTCLASYCWLFWTG[MeIle]A (not fully specified (C-terminus, bridges); printed as RRAPGKLTCLASYCWLFWTG-MeIle-A; cysteine pairing not given here) [RRAPGKLTCLASYCWLFWTG-MeIle-A] | > 4 | –
RRAP[Sar]KLTCLASYCWLFWTGIA (not fully specified; printed as RRAP-Sar-KLTCLASYCWLFWTGIA; cysteine pairing not given here) [RRAP-Sar-KLTCLASYCWLFWTGIA] | < 0.5 | –
RRAPGKLTCLAS[dY]CWLFWTGIA (not fully specified (bridges); printed as RRAPGKLTCLASyCWLFWTGIA; cysteine pairing not given here) [RRAPGKLTCLASyCWLFWTGIA] | < 0.5 | –
RRAPGKLTCLASYC[NMeW]LFWTGIA (cysteine pairing not given here) [RRAPGKLTCLASYC-MeTrp-LFWTGIA] | > 10 | –
PRIRTVGPGSRSASGKLTCLASYCWLFWTGIA-NH2 (cysteine pairing not given here) [compound 21] | – | < 0.5
RRAPGKLTCLASYCWLFWT[Sar]IA (not fully specified; printed as RRAPGKLTCLASYCWLFWT-Sar-IA; cysteine pairing not given here) [RRAPGKLTCLASYCWLFWT-Sar-IA] | < 0.5 | –

More lines, now with the values ahead:

EC50 [µM], FXa generation assay [µM] | EC50 [µM], FXa generation assay with hFIXa [µM] | Binder
> 1 | – | RRAPGKL[NMeT]CLASYCWLFWTGIA (cysteine pairing not given here) [RRAPGKL-MeThr-CLASYCWLFWTGIA]
– | < 0.5 | PRI[dR]TVGPGS[dR]SASGKLTCLASYCWLFWTGIA-NH2 (cysteine pairing not given here) [compound 23]
< 0.5 | – | RRA[dP]GKLTCLASYCWLFWTGIA (disulfide 9-14 (inferred)) [RRApGKLTCLASYCWLFWTGIA]
> 1 | – | RRAPGKLTCL[dA]SYCWLFWTGIA (not fully specified (bridges); cysteine pairing not given here) [RRAPGKLTCLaSYCWLFWTGIA]
> 1 | – | RRAPGKLTCLASYCWL[NMeF]WTGIA (not fully specified (bridges); printed as RRAPGKLTCLASYCWL-MePhe-WTGIA; cysteine pairing not given here) [RRAPGKLTCLASYCWL-MePhe-WTGIA]
< 0.5 | – | R[NMeR]APGKLTCLASYCWLFWTGIA (disulfide 9-14 (inferred); not fully specified (C-terminus); printed as R-MeArg-APGKLTCLASYCWLFWTGIA) [R-MeArg-APGKLTCLASYCWLFWTGIA]
< 0.5 | – | RRAPGKLTCLA[NMeS]YCWLFWTGIA (not fully specified (bridges); printed as RRAPGKLTCLA-MeSer-YCWLFWTGIA; cysteine pairing not given here) [RRAPGKLTCLA-MeSer-YCWLFWTGIA]
> 1 | – | RRAPGKLTCLAS[NMeY]CWLFWTGIA (not fully specified (bridges); printed as RRAPGKLTCLAS-MeTyr-CWLFWTGIA; cysteine pairing not given here) [RRAPGKLTCLAS-MeTyr-CWLFWTGIA]
< 0.5 | – | RRAPG[dK]LTCLASYCWLFWTGIA (disulfide 9-14 (inferred)) [RRAPGkLTCLASYCWLFWTGIA]
> 1 | – | RRAPGKL[dT]CLASYCWLFWTGIA (not fully specified (C-terminus, bridges); printed as RRAPGKLtCLASYCWLFWTGIA; cysteine pairing not given here) [RRAPGKLtCLASYCWLFWTGIA]
> 1 | – | RR[dA]PGKLTCLASYCWLFWTGIA (not fully specified (bridges); printed as RRaPGKLTCLASYCWLFWTGIA; cysteine pairing not given here) [RRaPGKLTCLASYCWLFWTGIA]
– | < 0.5 | RRAPGKLTCLASYCWLFWTGIA-NH2 (cysteine pairing not given here) [compound 4]

Source: patent US20140303084A1 (Biogen, published 2014)
